Earlier results in US9394339B2, “Stabilized formulations of peptides and proteins protecting against non-enzymatic degradation” (Lyotropic Therapeutics, Inc., priority 2007, dated 2016).

conditions: aqueous solution, pH 7.4, 37° C., Tris-HCl buffer

Molecule	T1/10 (time to 10% degradation by deamidation) [days]
Procathepsin K (1BY8): human protein (protein, UniProt P43235 16-329, looked up, pro-form) pro-form: LYPEEILDTHWELWKKTHRKQYNNKVDEISRRLIWEKNLKYISIHNLEASLGVHTYELAMNHLGDMTSEEVVQKMTGLKVPLSHSRSNDTLYIPEWEGRAPDSVDYRKKGYVTPVKNQGQCGSCWAFSSVGALEGQLKKKTGKLLNLSPQNLVDCVSENDGCGGGYMTNAFQYVQKNRGIDSEDAYPYVGQEESCMYNPTGKAAKCRGYREIPEGNEKALKRAVARVGPVSVAIDASLTSFQFYSKGVYYDESCNSDNLNHAVLAVGYGIQKGNKHWIIKNSWGENWGNKGYILMARNKNNACGIANLASFPKM	4.3
Branched-chain -keto acid dehydrogenase (1DTW): human protein (protein, UniProt P12694 46-445; P21953 51-392, looked up) 2-oxoisovalerate … 1: SSLDDKPQFPGASAEFIDKLEFIQPNVISGIPIYRVMDRQGQIINPSEDPHLPKEKVLKLYKSMTLLNTMDRILYESQRQGRISFYMTNYGEEGTHVGSAAALDNTDLVFGQYREAGVLMYRDYPLELFMAQCYGNISDLGKGRQMPVHYGCKERHFVTISSPLATQIPQAVGAAYAAKRANANRVVICYFGEGAASEGDAHAGFNFAATLECPIIFFCRNNGYAISTPTSEQYRGDGIAARGPGYGIMSIRVDGNDVFAVYNATKEARRRAVAENQPFLIEAMTYRIGHHSTSDDSSAYRSVDEVNYWDKQDHPISRLRHYLLSQGWWDEEQEKAWRKQSRRKVMEAFEQAERKPKPNPNLLFSDVYQEMPAQLRKQQESLARHLQTYGEHYPLDHFDK 2-oxoisovalerate … 2: VAHFTFQPDPEPREYGQTQKMNLFQSVTSALDNSLAKDPTAVIFGEDVAFGGVFRCTVGLRDKYGKDRVFNTPLCEQGIVGFGIGIAVTGATAIAEIQFADYIFPAFDQIVNEAAKYRYRSGDLFNCGSLTIRSPWGCVGHGALYHSQSPEAFFAHCPGIKVVIPRSPFQAKGLLLSCIEDKNPCIFFEPKILYRAAAEEVPIEPYNIPLSQAEVIQEGSDVTLVAWGTQVHVIREVASMAKEKLGVSCEVIDLRTIIPWDVDTICKSVIKTGRLLISHEAPLTGGFASEISSTVQEECFLNLEAPISRVCGYDTPFPHIFEPFYIPDKWKCYDALRKMINY	12
Carbonic anhydrase IV (1ZNC): human protein (protein, UniProt P22748 19-284, looked up) Carbonic anhydrase 4: AESHWCYEVQAESSNYPCLVPVKWGGNCQKDRQSPINIVTTKAKVDKKLGRFFFSGYDKKQTWTVQNNGHSVMMLLENKASISGGGLPAPYQAKQLHLHWSDLPYKGSEHSLDGEHFAMEMHIVHEKEKGTSRNVKEAQDPEDEIAVLAFLVEAGTQVNEGFQPLVEALSNIPKPEMSTTMAESSLLDLLPKEEKLRHYFRYLGSLTTPTCDEKVVWTVFREPIQLHREQILAFSQKLYYDKEQTVSMKDNVRPLQQLGQRTVIKS	11
Dihydropteridine reductase (1HDR): human protein (protein, UniProt P09417 2-244, looked up) Dihydropteridine reductase: AAAAAAGEARRVLVYGGRGALGSRCVQAFRARNWWVASVDVVENEEASASIIVKMTDSFTEQADQVTAEVGKLLGEEKVDAILCVAGGWAGGNAKSKSLFKNCDLMWKQSIWTSTISSHLATKHLKEGGLLTLAGAKAALDGTPGMIGYGMAKGAVHQLCQSLAGKNSGMPPGAAAIAVLPVTLDTPMNRKSMPEADFSSWTPLEFLVETFHDWITGKNRPSSGSLIQVVTTEGRTELTPAYF	15
Medium chain acyl-coa dehydrogenase (1EGE): human protein (protein, UniProt P11310 26-421, looked up) Medium-chain specific …: KANRQREPGLGFSFEFTEQQKEFQATARKFAREEIIPVAAEYDKTGEYPVPLIRRAWELGLMNTHIPENCGGLGLGTFDACLISEELAYGCTGVQTAIEGNSLGQMPIIIAGNDQQKKKYLGRMTEEPLMCAYCVTEPGAGSDVAGIKTKAEKKGDEYIINGQKMWITNGGKANWYFLLARSDPDPKAPANKAFTGFIVEADTPGIQIGRKELNMGQRCSDTRGIVFEDVKVPKENVLIGDGAGFKVAMGAFDKTRPVVAAGAVGLAQRALDEATKYALERKTFGKLLVEHQAISFMLAEMAMKVELARMSYQRAAWEVDSGRRNTYYASIAKAFAGDIANQLATDAVQILGGNGFNTEYPVEKLMRDAKIYQIYEGTSQIQRLIVAREHIDKYKN	5.5
Procathepsin L (1CS8): human protein (protein, UniProt P07711 18-333, looked up, pro-form) pro-form: TLTFDHSLEAQWTKWKAMHNRLYGMNEEGWRRAVWEKNMKMIELHNQEYREGKHSFTMAMNAFGDMTSEEFRQVMNGFQNRKPRKGKVFQEPLFYEAPRSVDWREKGYVTPVKNQGQCGSCWAFSATGALEGQMFRKTGRLISLSEQNLVDCSGPQGNEGCNGGLMDYAFQYVQDNGGLDSEESYPYEATEESCKYNPKYSVANDTGFVDIPKQEKALMKAVATVGPISVAIDAGHESFLFYKEGIYFEPDCSSEDMDHGVLVVGYGFESTESDNNKYWLVKNSWGEEWGMGGYVKMAKDRRNHCGIASAASYPTV	7.3
Transaldolase (1F05): human protein (protein, UniProt P37837 1-337, looked up) Transaldolase: MSSSPVKRQRMESALDQLKQFTTVVADTGDFHAIDEYKPQDATTNPSLILAAAQMPAYQELVEEAIAYGRKLGGSQEDQIKNAIDKLFVLFGAEILKKIPGRVSTEVDARLSFDKDAMVARARRLIELYKEAGISKDRILIKLSSTWEGIQAGKELEEQHGIHCNMTLLFSFAQAVACAEAGVTLISPFVGRILDWHVANTDKKSYEPLEDPGVKSVTKIYNYYKKFSYKTIVMGASFRNTGEIKALAGCDFLTISPKLLGELLQDNAKLVPVLSAKAAQASDLEKIHLDEKSFRWLHNEDQMAVEKLSDGIRKFAADAVKLERMLTERMFNAENGK	0.21
Ribonuclease A (1AFK): human protein (protein, UniProt P61823 27-150, looked up) Ribonuclease pancreatic: KETAAAKFERQHMDSSTSAASSSNYCNQMMKSRNLTKDRCKPVNTFVHESLADVQAVCSQKNVACKNGQTNCYQSYSTMSITDCRETGSSKYPNCAYKTTQANKHIIVACEGNPYVPVHFDASV	10
Purine nucleoside phosphorylase (1ULA): human protein (protein, UniProt P00491 1-289, looked up) Purine nucleoside …: MENGYTYEDYKNTAEWLLSHTKHRPQVAIICGSGLGGLTDKLTQAQIFDYGEIPNFPRSTVPGHAGRLVFGFLNGRACVMMQGRFHMYEGYPLWKVTFPVRVFHLLGVDTLVVTNAAGGLNPKFEVGDIMLIRDHINLPGFSGQNPLRGPNDERFGDRFPAMSDAYDRTMRQRALSTWKQMGEQRELQEGTYVMVAGPSFETVAECRVLQKLGADAVGMSTVPEVIVARHCGLRVFGFSLITNKVIMDYESLEKANHEEVLAAGKQAAQKLEQFVSILMASIPLPDKAS	0.27

same assay, conditions: buffer, pH 7.4

Molecule	T1/2 (half-life, deamidation) [days]
Fructose-1,6-bisphosphatase (1FTA): human protein (protein, UniProt P09467 2-338, looked up) Fructose-1,6-bisphosphatase 1: ADQAPFDTDVNTLTRFVMEEGRKARGTGELTQLLNSLCTAVKAISSAVRKAGIAHLYGIAGSTNVTGDQVKKLDVLSNDLVMNMLKSSFATCVLVSEEDKHAIIVEPEKRGKYVVCFDPLDGSSNIDCLVSVGTIFGIYRKKSTDEPSEKDALQPGRNLVAAGYALYGSATMLVLAMDCGVNCFMLDPAIGEFILVDKDVKIKKKGKIYSLNEGYARDFDPAVTEYIQRKKFPPDNSAPYGARYVGSMVADVHRTLVYGGIFLYPANKKSPNGKLRLLYECNPMAYVMEKAGGMATTGKEAVLDVIPTDIHQRAPVILGSPDDVLEFLKVYEKHSAQ	59

same assay, conditions: pH 7.4

Molecule	T1/10 (time to 10% degradation by deamidation) [days]
Fructose-1,6-bisphosphatase (1FTA): human protein (protein, UniProt P09467 2-338, looked up) Fructose-1,6-bisphosphatase 1: ADQAPFDTDVNTLTRFVMEEGRKARGTGELTQLLNSLCTAVKAISSAVRKAGIAHLYGIAGSTNVTGDQVKKLDVLSNDLVMNMLKSSFATCVLVSEEDKHAIIVEPEKRGKYVVCFDPLDGSSNIDCLVSVGTIFGIYRKKSTDEPSEKDALQPGRNLVAAGYALYGSATMLVLAMDCGVNCFMLDPAIGEFILVDKDVKIKKKGKIYSLNEGYARDFDPAVTEYIQRKKFPPDNSAPYGARYVGSMVADVHRTLVYGGIFLYPANKKSPNGKLRLLYECNPMAYVMEKAGGMATTGKEAVLDVIPTDIHQRAPVILGSPDDVLEFLKVYEKHSAQ	9.0
